These results are taken from patent US20160052997A1.

Assay [1] concerns the target HA of A/Brisbane/10/07 (H3N2) virus (Influenza A virus A/Brisbane/10/07 (H3N2)). Briefly: cell-based or functional assay.
Assay [2] deals with HA of A/Hong Kong/68 (H3N2) virus (Influenza A virus A/Hong Kong/68 (H3N2)). Briefly: cell-based or functional assay.
Assay [3] concerns the target HA of A/Wisconsin/67/05 (H3N2) virus (Influenza A virus A/Wisconsin/67/05 (H3N2)). Briefly: cell-based or functional assay.
In assay [4] the target is purified recombinant HA protein of H1N1 (A/Texas/05/09) (Influenza A virus A/Texas/05/09 (H1N1)).
In assay [5] the target is purified recombinant HA protein of H1N1 (A/Ohio/07/09) (Influenza A virus A/Ohio/07/09 (H1N1)).
The target in assay [6] is purified recombinant HA protein of H5N1 (A/Vietnam/1203/04) (Influenza A virus A/Vietnam/1203/04 (H5N1)).
The target in assay [7] is purified recombinant HA protein of H1N1 (A/Ohio/07/09) (Influenza A virus A/Ohio/07/09 (H1N1)). Briefly: SPR, Biacore T200, HA captured via anti-6x his tag antibody, 25 C. (SPR reads the build-up and loss of mass on a sensor chip optically.)
In assay [8] the target is purified recombinant HA protein of H1N1 (A/Texas/05/09) (Influenza A virus A/Texas/05/09 (H1N1)). The description is as above.
Assay [9] addresses purified recombinant HA protein of H5N1 (A/Vietnam/1203/04) (Influenza A virus A/Vietnam/1203/04 (H5N1)). Described as above.

Several values for one entry are separate records, joined by “and”; a condition that tells them apart may be missing. Equal entries are not always repeated. Where two headings read alike, the source gives them in different places.

B1: CT164 (antibody, V domains shown)
VH: QVQLVQSGVEVKKPGASVKVSCKTSGYPFSTYGVSWVRQAPGQGLEWVGWISGYTGITDYAQKSQGRVTLTTDASTATAFLELRSLRPDDTATYFCARDKVQGRVEAGSGGRHDYWGQGTLVIVSS
VL: EVVLTQSPGTLTLPPGDRATLSCRASHSVGSTYIAWFQQKSGQAPRRLIYGASNRATDIPDRFSGSGSGTDFTLTIRRLEPEDSAVYYCQQFSVSPWTFGQGTRVEIKR
In the case of B1, the MN test: lowest antibody concentration at which no virus antigen was detected came out at 0.625 µg/mL in assay [1], 1.25 µg/mL in assay [2] and 2.5 µg/mL in assay [3].

B2: CT166 (antibody, V domains shown)
VH: QVQLVQSGAEVKKPGASVKVSCKTSGYSFSTYGVSWVRQAPGQGLEWVGWISGYTGITDYAQKFQGRVTLTTDATTATAFLELRSLRPDDTATYFCARDKVQGRVEVGSGGRHDYWGQGTLVIVSS
VL: EVVLTQSPGTLALPPGERATLSCRASHSIGSTYIAWYQQKSGQAPRRLIYGASNRASDIPDRFSGSGSGTDFTLTIRRLEPEDSAVYYCQQFSVSPWTFGQGTRVEIKR
As to B2, the MN test: lowest antibody concentration at which no virus antigen was detected in assay [1] is 1.25 µg/mL; in [2], 2.5 µg/mL; in assay [3], 5 µg/mL.

B3: CT120 (antibody, V domains shown)
VH: QVQLVQSGAEVKMPGSSVKVSCKTSGVFFSSHAISWVRQAPGQGLEWMGGISPMFGTTHYAQKFQGRVTITADQSTTTAYMELTSLTSEDTAVYYCARDGAGSYYPLNWFDPWGQGTLVTVSS
VL: EIVLTQSPATLSLSPGERATLSCRASENIWNNLAWYQQKPGQAPRLLISGASTGATGVPSRFRGSGSRTEFTLTISSLQSEDFAIYFCQQYNSWPRTFGPGTKVEIKR
As usually defined, the Kd is a measure of binding affinity in units of concentration. As a reminder, the koff is the rate constant with which the complex falls apart. By kon is commonly meant the rate constant with which the complex forms. In the case of B3, the dissociation constant (Kd) is 1.76 nM in assay [4]; 2 nM in assay [5]; 3.97 nM in [6]; 1.76 nM and 2.24 nM in [7]; 1.97 nM and 1.55 nM in assay [8]; 3.74 nM and 4.2 nM in [9]. Moreover, the koff in [7] is 0.000663 s⁻¹ and 0.000789 s⁻¹; in [8], 0.00119 s⁻¹ and 0.00098 s⁻¹; in assay [9], 3.88 s⁻¹. Further, the kon in assay [7] was 376000 M⁻¹ s⁻¹ and 352000 M⁻¹ s⁻¹; in assay [8], 606000 M⁻¹ s⁻¹ and 632000 M⁻¹ s⁻¹.
